Measurements published in patent EP1073891B1, “METHOD OF PREDICTING RECEPTOR MODULATING ACTIVITY” (Duke University, priority 1998, dated 1999).

Columns and labels:
Format in all cases: cell-based
[1] = target: T1, estrogen receptor beta (ERβ-VP16) (Homo sapiens, UniProt Q92731); assay: Mammalian two-hybrid, specificity of peptide-nuclear receptor interaction (Example 4.2); conditions: mammalian two-hybrid (Fig. 8)
T1 construct: expressed in transfected cells
Excerpt: (§1) Peptide sequences representing each class was fused to the DNA binding domain (DBD) of the yeast transcription factor Ga14. HepG2 cells were then transiently transfected with expression vectors for ERα-VP16 and the Gal4-peptide fusion proteins. In addition, a luciferase reporter construct under the control of 5 copies of a Ga14 upstream enhancer element was also transfected along with a pCMV-β galactosidase vector to normalize for transfection efficiency. Transfection of the Ga14 DBD alone is included as control. Cells were then induced with various ligands as indicated in the figure and assayed for luciferase activity and β galactosidase activity. Normalized response was obtained by dividing the luciferase activity by the β galactosidase activity.
(§2) The specificity of peptide-nuclear receptor interaction was analyzed (Fig. 8) using the mammalian two-hybrid system. Experimental design is the same as in figure 2 except that either progesterone receptor (PRB-VP16), estrogen receptor beta (ERβ-VP16), glucocorticoid receptor (GR-VP16) or thyroid receptor beta (TRβ-VP16) was tested.

[2] = target: T2, progesterone receptor (PRB-VP16) (Homo sapiens, UniProt P06401); assay: as above; conditions: mammalian two-hybrid (Fig. 8)
T2 construct: expressed in transfected cells
T2 sequence (P06401 1-933): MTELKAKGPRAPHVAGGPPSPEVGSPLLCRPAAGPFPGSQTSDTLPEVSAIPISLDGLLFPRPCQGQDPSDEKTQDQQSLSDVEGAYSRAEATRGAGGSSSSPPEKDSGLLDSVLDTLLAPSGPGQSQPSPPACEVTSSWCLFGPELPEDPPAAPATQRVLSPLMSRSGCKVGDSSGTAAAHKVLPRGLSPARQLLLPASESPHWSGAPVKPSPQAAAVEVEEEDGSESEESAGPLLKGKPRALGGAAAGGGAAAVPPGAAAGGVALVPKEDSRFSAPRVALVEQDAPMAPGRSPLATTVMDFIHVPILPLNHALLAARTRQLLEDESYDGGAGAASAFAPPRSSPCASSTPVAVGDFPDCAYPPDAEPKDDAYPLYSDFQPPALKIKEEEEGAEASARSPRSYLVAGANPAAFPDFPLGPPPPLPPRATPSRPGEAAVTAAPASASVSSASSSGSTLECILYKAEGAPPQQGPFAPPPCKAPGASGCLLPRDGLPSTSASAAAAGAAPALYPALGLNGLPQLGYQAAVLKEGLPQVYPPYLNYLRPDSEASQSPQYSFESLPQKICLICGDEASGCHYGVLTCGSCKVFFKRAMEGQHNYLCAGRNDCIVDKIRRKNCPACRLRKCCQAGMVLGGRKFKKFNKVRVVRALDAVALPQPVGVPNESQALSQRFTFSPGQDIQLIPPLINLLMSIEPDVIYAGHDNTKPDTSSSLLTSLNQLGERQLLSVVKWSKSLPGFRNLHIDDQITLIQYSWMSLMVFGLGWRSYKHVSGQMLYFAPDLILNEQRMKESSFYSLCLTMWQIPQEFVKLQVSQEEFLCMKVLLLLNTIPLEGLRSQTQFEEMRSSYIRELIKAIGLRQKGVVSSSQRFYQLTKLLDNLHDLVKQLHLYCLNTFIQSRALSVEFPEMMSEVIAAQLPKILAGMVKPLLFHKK
Excerpt: as §1, §2

ER535-stop = target: T3, ER535-stop (Homo sapiens, UniProt P03372); assay: Mammalian two-hybrid with ERα AF-2 mutants (Examples 4.3, 101.3); conditions: mammalian two-hybrid (Fig. 9)
T3 construct: mutant ER-535 STOP was truncated after residue V535; expressed in transfected cells
T3 sequence (P03372 1-534): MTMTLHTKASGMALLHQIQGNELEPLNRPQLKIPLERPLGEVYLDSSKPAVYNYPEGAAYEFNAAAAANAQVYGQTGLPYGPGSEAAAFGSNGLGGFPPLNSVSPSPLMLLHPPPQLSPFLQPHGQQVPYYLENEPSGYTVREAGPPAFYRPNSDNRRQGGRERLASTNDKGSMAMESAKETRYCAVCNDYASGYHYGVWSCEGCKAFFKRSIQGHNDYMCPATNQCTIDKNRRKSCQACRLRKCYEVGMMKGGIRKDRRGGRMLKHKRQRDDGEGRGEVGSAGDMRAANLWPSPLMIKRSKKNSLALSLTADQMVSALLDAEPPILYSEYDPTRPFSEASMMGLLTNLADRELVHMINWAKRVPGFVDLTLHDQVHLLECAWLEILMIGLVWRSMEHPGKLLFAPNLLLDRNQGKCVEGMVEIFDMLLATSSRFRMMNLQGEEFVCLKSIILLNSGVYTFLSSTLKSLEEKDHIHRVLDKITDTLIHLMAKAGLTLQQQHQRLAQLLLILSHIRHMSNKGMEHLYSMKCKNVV
Excerpt: as §1
(§3) Three ERα mutants were compared with wild-type ERα. ER-LL was characterized by mutations L540A/L541A. Mutant ER3X was characterized by mutations D538N/E542Q/D545N. Finally, mutant ER-535 STOP was truncated after residue V535. […] Experimental design is the same as in figure 7 except that either (A) ER3X (B) ERLL or (C) ER535-stop was analyzed for binding to conformation sensitive peptides.
(§4) To test whether different LXXLL motif peptides interact within the same region of ER, mammalian two hybrid assays were used. Selected peptide sequences and different ER mutants (ER-LL, ER-3X, ER-535 STOP) were expressed as fusion proteins to Gal4DBD and VP16 (TAD), respectively.

ERLL (L540A/L541A) = target: T4, ERLL (L540A/L541A) (Homo sapiens, UniProt P03372, L540A/L541A); assay: as above; conditions: mammalian two-hybrid (Fig. 9)
T4 construct: expressed in transfected cells
T4 sequence (P03372 1-595 L540A/L541A): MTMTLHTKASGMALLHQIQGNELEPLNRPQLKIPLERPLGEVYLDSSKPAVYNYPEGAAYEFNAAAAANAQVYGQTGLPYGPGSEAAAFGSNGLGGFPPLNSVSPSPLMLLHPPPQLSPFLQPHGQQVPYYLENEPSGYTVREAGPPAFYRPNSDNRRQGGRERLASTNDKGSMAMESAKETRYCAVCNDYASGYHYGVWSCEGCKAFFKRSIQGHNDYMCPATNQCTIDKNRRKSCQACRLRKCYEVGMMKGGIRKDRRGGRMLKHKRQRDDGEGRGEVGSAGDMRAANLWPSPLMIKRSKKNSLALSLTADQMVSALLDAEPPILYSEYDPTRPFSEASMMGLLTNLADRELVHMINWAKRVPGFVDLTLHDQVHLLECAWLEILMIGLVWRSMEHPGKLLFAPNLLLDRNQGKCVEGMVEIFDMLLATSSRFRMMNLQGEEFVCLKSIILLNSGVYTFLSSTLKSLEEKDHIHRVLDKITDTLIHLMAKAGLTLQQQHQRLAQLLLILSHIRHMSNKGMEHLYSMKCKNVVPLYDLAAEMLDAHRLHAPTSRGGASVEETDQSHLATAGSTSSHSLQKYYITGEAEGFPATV
Excerpt: as §1, §3, §4

T1 sequence (Q92731 whole entry, species assumed): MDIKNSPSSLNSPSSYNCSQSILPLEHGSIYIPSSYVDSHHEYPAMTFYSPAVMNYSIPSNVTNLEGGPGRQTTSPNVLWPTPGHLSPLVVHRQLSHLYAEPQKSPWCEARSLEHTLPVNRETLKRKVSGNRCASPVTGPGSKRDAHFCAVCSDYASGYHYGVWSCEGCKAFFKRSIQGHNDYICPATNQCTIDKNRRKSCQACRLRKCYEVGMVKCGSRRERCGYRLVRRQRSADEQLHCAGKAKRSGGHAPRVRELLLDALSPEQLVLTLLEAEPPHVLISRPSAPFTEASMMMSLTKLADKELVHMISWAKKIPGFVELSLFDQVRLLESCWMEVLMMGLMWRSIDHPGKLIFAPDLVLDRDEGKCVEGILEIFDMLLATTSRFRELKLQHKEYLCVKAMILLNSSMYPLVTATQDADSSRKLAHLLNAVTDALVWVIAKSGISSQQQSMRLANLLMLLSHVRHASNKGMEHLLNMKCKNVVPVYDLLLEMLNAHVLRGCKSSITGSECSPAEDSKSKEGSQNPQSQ

| interaction with the ER535-stop mutant receptor (ER535-stop) | interaction with the ERLL mutant receptor (ERLL (L540A/L541A)) | Sequence | interaction with ERβ [1] | interaction with PRB [2] |
| --- | --- | --- | --- | --- |
| loss of the tamoxifen specificity | loss of the tamoxifen specificity | SSPGSREWFKDMLSR [α/β V] | bound ERβ only in the presence of tamoxifen | able to associate with PRB in the presence of the PR antagonists RU 486 and ZK 98299 |
| loss of the tamoxifen specificity | loss of the tamoxifen specificity | SSWDMHQFFWEGVSR [α/β III] | None of the receptors tested interact significantly | None of the receptors tested interact significantly |
| largely unaffected | largely unaffected | SSLTSRDFGSWYASR [α II] | None of the receptors tested interact significantly | None of the receptors tested interact significantly |
| unable to interact | unable to interact | SSNHQSSRLIELLSR [α/β I] | interact with the αβ I peptide in the presence of the appropriate agonist | interact with the αβ I peptide in the presence of the appropriate agonist |
